# Source: patent publication US20050043221A1 (BROWN UNIVERSITY, published 2005)
# T1: recombinant human biglycan core polypeptide (no side chains), His-tagged, vaccinia system (human, UniProt P21810 38-368)
# T1 construct: GAG attachment sites present but not substituted; also called BGN; core biglycan; not shown: N-terminal cassette His6-[Glu-Ser]-factor Xa site-[Leu-Glu]
# T1 sequence: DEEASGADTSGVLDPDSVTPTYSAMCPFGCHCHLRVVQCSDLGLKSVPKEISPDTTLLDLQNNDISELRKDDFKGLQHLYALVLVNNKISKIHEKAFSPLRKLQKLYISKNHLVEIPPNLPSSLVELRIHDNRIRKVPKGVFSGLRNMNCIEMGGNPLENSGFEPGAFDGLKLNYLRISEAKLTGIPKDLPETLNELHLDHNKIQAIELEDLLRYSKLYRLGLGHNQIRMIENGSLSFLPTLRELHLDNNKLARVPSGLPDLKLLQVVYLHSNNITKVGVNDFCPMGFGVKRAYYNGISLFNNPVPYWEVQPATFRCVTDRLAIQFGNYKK
# T2: α-sarcoglycan, 35S-methionine-labelled, in vitro translated (human, UniProt Q16586 1-387, limits assumed)
# T2 construct: also called alpha-sarcoglycan
# T2 sequence (looked up): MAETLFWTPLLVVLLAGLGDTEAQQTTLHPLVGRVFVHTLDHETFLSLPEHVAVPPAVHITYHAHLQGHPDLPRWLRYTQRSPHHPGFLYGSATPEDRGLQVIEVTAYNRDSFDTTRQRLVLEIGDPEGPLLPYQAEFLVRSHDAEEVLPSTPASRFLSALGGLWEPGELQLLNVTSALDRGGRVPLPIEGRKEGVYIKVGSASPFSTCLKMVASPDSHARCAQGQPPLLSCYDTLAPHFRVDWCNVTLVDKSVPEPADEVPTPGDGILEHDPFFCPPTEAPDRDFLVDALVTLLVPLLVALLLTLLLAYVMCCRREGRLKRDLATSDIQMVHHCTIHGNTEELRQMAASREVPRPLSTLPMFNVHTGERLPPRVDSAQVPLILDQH
# B1: recombinant decorin core polypeptide (no side chains), vaccinia system (other, UniProt P07585 31-359, looked up, not shown: small tags and cut ends)
# chain: DEASGIGPEVPDDRDFEPSLGPVCPFRCQCHLRVVQCSDLGLDKVPKDLPPDTTLLDLQNNKITEIKDGDFKNLKNLHALILVNNKISKVSPGAFTPLVKLERLYLSKNQLKELPEKMPKTLQELRAHENEITKVRKVTFNGLNQMIVIELGTNPLKSSGIENGAFQGMKKLSYIRIADTNITSIPQGLPPSLTELHLDGNKISRVDAASLKGLNNLAKLGLSFNSISAVDNGSLANTPHLRELHLDNNKLTRVPGGLAEHKYIQVVYLHNNNISVVGSSDFCPPGHNTKKASYSGVSLFSNPVQYWEIQPSTFRCVYVRSAIQLGNYK
# B2: recombinant decorin proteoglycan (core and side chains), vaccinia system (other, UniProt P07585 31-359, looked up, not shown: small tags and cut ends)
# chain: DEASGIGPEVPDDRDFEPSLGPVCPFRCQCHLRVVQCSDLGLDKVPKDLPPDTTLLDLQNNKITEIKDGDFKNLKNLHALILVNNKISKVSPGAFTPLVKLERLYLSKNQLKELPEKMPKTLQELRAHENEITKVRKVTFNGLNQMIVIELGTNPLKSSGIENGAFQGMKKLSYIRIADTNITSIPQGLPPSLTELHLDGNKISRVDAASLKGLNNLAKLGLSFNSISAVDNGSLANTPHLRELHLDNNKLTRVPGGLAEHKYIQVVYLHNNNISVVGSSDFCPPGHNTKKASYSGVSLFSNPVQYWEIQPSTFRCVYVRSAIQLGNYK
# modifications: glycosaminoglycan side chain
# notes: also called DEC-PG; DECPG
# Key:
# [1] = target: T1, recombinant human biglycan core …; assay: blot overlay with 35S in vitro translated sarcoglycan
# [2] = target: B2; assay: as above
# [3] = target: B1; assay: as above
# [4] = target: T2, α-sarcoglycan, 35S-methionine-labelled, …; assay: as above
# [5] = target: B1; assay: blot overlay
# [6] = target: T1, recombinant human biglycan core …; assay: co-immunoprecipitation in solution with anti-biglycan or anti-poly-His, protein G beads
binder,measurement,setting,value
"γ-sarcoglycan, 35S-methionine-labelled, in vitro translated (other, human, UniProt Q13326 1-291, looked up, also called gamma sarcoglycan) MVREQYTTATEGICIERPENQYVYKIGIYGWRKRCLYLFVLLLLIILVVNLALTIWILKVMWFSPAGMGHLCVTKDGLRLEGESEFLFPLYAKEIHSRVDSSLLLQSTQNVTVNARNSEGEVTGRLKVGPKMVEVQNQQFQINSNDGKPLFTVDEKEVVVGTDKLRVTGPEGALFEHSVETPLVRADPFQDLRLESPTRSLSMDAPRGVHIQAHAGKIEALSQMDILFHSSDGMLVLDAETVCLPKLVQGTWGPSGSSQSLYEICVCPDGKLYLSVAGVSTTCQEHNHICL",binding result,[1],binds
same,binding result,[2],no binding
same,binding result,[3],no binding
B1,binding result,[4],no binding
B2,binding result,[4],no binding
"β-sarcoglycan, 35S-methionine-labelled, in vitro translated (other, human, UniProt Q16585 1-318, looked up, also called beta-sarcoglycan) MAAAAAAAAEQQSSNGPVKKSMREKAVERRSVNKEHNSNFKAGYIPIDEDRLHKTGLRGRKGNLAICVIILLFILAVINLIITLVIWAVIRIGPNGCDSMEFHESGLLRFKQVSDMGVIHPLYKSTVGGRRNENLVITGNNQPIVFQQGTTKLSVENNKTSITSDIGMQFFDPRTQNILFSTDYETHEFHLPSGVKSLNVQKASTERITSNATSDLNIKVDGRAIVRGNEGVFIMGKTIEFHMGGNMELKAENSIILNGSVMVSTTRLPSSSSGDQLGSGDWVRYKLCMCADGTLFKVQVTSQNMGCQISDNPCGNTH",binding result,[5],no binding
same,binding result,[6],no binding
